Molecular target: multiubiquitinated proteins (of HEK293T cells)
Experiment: cell-based or functional assay

Sequence of Flag-tagged hFAF1 (human Fas associated factor 1, full form) (Q9UNN5 other isoform, or with tags, fused parts or gaps): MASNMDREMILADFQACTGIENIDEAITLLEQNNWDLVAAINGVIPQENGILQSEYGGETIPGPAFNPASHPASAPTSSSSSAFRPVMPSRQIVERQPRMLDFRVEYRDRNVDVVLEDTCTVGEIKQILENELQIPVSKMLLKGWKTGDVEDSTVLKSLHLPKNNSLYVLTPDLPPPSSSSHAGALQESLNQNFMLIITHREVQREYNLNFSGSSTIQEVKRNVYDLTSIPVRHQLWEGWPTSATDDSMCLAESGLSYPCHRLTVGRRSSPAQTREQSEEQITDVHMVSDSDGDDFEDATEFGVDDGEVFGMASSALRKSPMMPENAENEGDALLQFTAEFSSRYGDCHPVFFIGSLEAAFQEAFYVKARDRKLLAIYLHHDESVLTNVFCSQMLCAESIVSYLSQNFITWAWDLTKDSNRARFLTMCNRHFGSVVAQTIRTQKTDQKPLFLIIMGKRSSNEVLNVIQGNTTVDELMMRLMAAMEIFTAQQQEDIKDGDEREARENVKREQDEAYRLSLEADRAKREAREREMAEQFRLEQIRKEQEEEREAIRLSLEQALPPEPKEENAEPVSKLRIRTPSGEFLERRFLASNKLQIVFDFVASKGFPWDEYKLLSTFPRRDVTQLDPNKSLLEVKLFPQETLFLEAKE

**Q.** For “Flag-tagged hFAF1 (human Fas associated factor 1, full form) (from UniProt Q9UNN5 1-650)”, which mean fluorescence intensity of the Ub^G76V-GFP reporter (flow cytometry) is on record?
**A.** Its mean fluorescence intensity of the Ub^G76V-GFP reporter (flow cytometry) is 2 fold.

Reference: patent US20050261190A1
